What was measured:
[1] = target: lymphoblastoid interferon (NIH reference Ga23-901-532)
[2] = target: leukocyte interferon (Sigma Product No. I-2396); test: cell-based or functional assay

- EC50 (read off the bars); loss of protection by 3 IU/ml lymphoblastoid interferon, cytopathic effect [1]: 3 ng/mL
- EC50 (read off the bars); loss of protection by 10 IU/ml lymphoblastoid interferon, cytopathic effect [1]: 5 ng/mL
- neutralization of anti-viral activity [2]: > 95%
B1: murine anti-human IFN-α monoclonal antibody 9F3 (antibody, IgG2, V domains shown)
VL: DIVLTQSPASLAVSLGQRATISCRASQSVSTSSYSYMHWYQQKPGQPPKVLISYASNLESGVPARFSGSGSGTDFTLNIHPVEEGDTATYFCQHSWGIPRTFGAGTKLELRRAV
VH: EVQLQQSGPELVKPGASVKISCKTSGYTFTEYIIHWVKQGHGRSLEWIGSINPDYDITNYNQRFKGKATLTLDKSSRTAYLELRSLTSEDSAVYYCASWISDFFDYWGQGTTLMVSAAS

Source: patent US20070059309A1
